The source of these data is patent publication US20100260668A1 (published 2010).

B1: DVD660 (bispecific antibody, human IgG1, kappa)
heavy: not shown
light: DIQMTQSPSSLSASVGDRVTITCSASQDISNYLNWYQQKPGKAPKVLIYFTSSLHSGVPSRFSGSGSGTDFTLTISSLQPEDFATYYCQQYSTVPWTFGQGTKVEIKRTVAAPDIQMTQSPSSLSASVGDRVTITCKASENVVSYVSWYQQKPGKAPKLLIYGASNRNTGVPSRFSGSGSGTDFTLTISSLQPEDFATYYCGQSYNYPYTFGQGTKLEIKRTVAAPSVFIFPPSDEQLKSGTASVVCLLNNFYPREAKVQWKVDNALQSGNSQESVTEQDSKDSTYSLSSTLTLSKADYEKHKVYACEVTHQGLSSPVTKSFNRGEC
notes: DVD-Ig; HC linker short, LC linker short; vectors V1/V2
B2: DVD672 (bispecific antibody, human IgG1, kappa)
heavy: not shown
light: B1 light
notes: DVD-Ig; HC linker long, LC linker short; vectors V1/V2
B3: DVD666 (bispecific antibody, human IgG1, kappa)
heavy: not shown
light: DIQMTQSPSSLSASVGDRVTITCSASQDISNYLNWYQQKPGKAPKVLIYFTSSLHSGVPSRFSGSGSGTDFTLTISSLQPEDFATYYCQQYSTVPWTFGQGTKVEIKRTVAAPSVFIFPPDIQMTQSPSSLSASVGDRVTITCKASENVVSYVSWYQQKPGKAPKLLIYGASNRNTGVPSRFSGSGSGTDFTLTISSLQPEDFATYYCGQSYNYPYTFGQGTKLEIKRTVAAPSVFIFPPSDEQLKSGTASVVCLLNNFYPREAKVQWKVDNALQSGNSQESVTEQDSKDSTYSLSSTLTLSKADYEKHKVYACEVTHQGLSSPVTKSFNRGEC
notes: DVD-Ig; HC linker long, LC linker long; vectors V1/V2
B4: DVD670 (bispecific antibody, human IgG1, kappa)
heavy: not shown
light: DIQMTQSPSSLSASVGDRVTITCRASQVIRRSLAWYQQKPGKAPKLLIYAASNLASGVPSRFSGSGSGTDFTLTISSLQPEDFATYYCQQSNTSPLTFGQGTKVEIKRTVAAPSVFIFPPDIQMTQSPSSLSASVGDRVTITCKASENVVSYVSWYQQKPGKAPKLLIYGASNRNTGVPSRFSGSGSGTDFTLTISSLQPEDFATYYCGQSYNYPYTFGQGTKLEIKRTVAAPSVFIFPPSDEQLKSGTASVVCLLNNFYPREAKVQWKVDNALQSGNSQESVTEQDSKDSTYSLSSTLTLSKADYEKHKVYACEVTHQGLSSPVTKSFNRGEC
notes: DVD-Ig; N-term VD AB071 (VEGF), C-term VD AB079 (HGF); HC linker long, LC linker long; vectors V1/V2
B5: DVD646 (bispecific antibody, human IgG1, kappa)
heavy: not shown
light: DIQMTQSPSSLSASVGDRVTITCRASQVIRRSLAWYQQKPGKAPKLLIYAASNLASGVPSRFSGSGSGTDFTLTISSLQPEDFATYYCQQSNTSPLTFGQGTKVEIKRTVAAPSVFIFPPDIQMTQSPSSVSASVGDRVTITCRASQGISSWLAWYQQKPGKAPNLLIYEASSLQSGVPSRFGGSGSGTDFTLTISSLQPEDFATYYCQQANGFPWTFGQGTKVEIKRTVAAPSVFIFPPSDEQLKSGTASVVCLLNNFYPREAKVQWKVDNALQSGNSQESVTEQDSKDSTYSLSSTLTLSKADYEKHKVYACEVTHQGLSSPVTKSFNRGEC
notes: DVD-Ig; N-term VD AB071 (VEGF), C-term VD AB012 (HGF); HC linker long, LC linker long; vectors V1/V2
B6: DVD658 (bispecific antibody, human IgG1, kappa)
heavy: not shown
light: B5 light
notes: DVD-Ig; N-term VD AB071 (VEGF), C-term VD AB012 (HGF); HC linker short, LC linker long; vectors V1/V2
B7: DVD648 (bispecific antibody, human IgG1, kappa)
heavy: not shown
light: DIQMTQSPSSLSASVGDRVTITCSASQDISNYLNWYQQKPGKAPKVLIYFTSSLHSGVPSRFSGSGSGTDFTLTISSLQPEDFATYYCQQYSTVPWTFGQGTKVEIKRTVAAPDIQMTQSPSSVSASVGDRVTITCRASQGISSWLAWYQQKPGKAPNLLIYEASSLQSGVPSRFGGSGSGTDFTLTISSLQPEDFATYYCQQANGFPWTFGQGTKVEIKRTVAAPSVFIFPPSDEQLKSGTASVVCLLNNFYPREAKVQWKVDNALQSGNSQESVTEQDSKDSTYSLSSTLTLSKADYEKHKVYACEVTHQGLSSPVTKSFNRGEC
notes: as for B2
B8: DVD656 (bispecific antibody, human IgG1, kappa)
heavy: not shown
light: DIQMTQSPSSLSASVGDRVTITCRASQDVSTAVAWYQQKPGKAPKLLIYSASFLYSGVPSRFSGSGSGTDFTLTISSLQPEDFATYYCQQSYTTPPTFGQGTKVEIKRTVAAPSVFIFPPDIQMTQSPSSVSASVGDRVTITCRASQGISSWLAWYQQKPGKAPNLLIYEASSLQSGVPSRFGGSGSGTDFTLTISSLQPEDFATYYCQQANGFPWTFGQGTKVEIKRTVAAPSVFIFPPSDEQLKSGTASVVCLLNNFYPREAKVQWKVDNALQSGNSQESVTEQDSKDSTYSLSSTLTLSKADYEKHKVYACEVTHQGLSSPVTKSFNRGEC
notes: DVD-Ig; HC linker short, LC linker long; vectors V1/V2
B9: DVD654 (bispecific antibody, human IgG1, kappa)
heavy: not shown
light: DIQMTQSPSSLSASVGDRVTITCSASQDISNYLNWYQQKPGKAPKVLIYFTSSLHSGVPSRFSGSGSGTDFTLTISSLQPEDFATYYCQQYSTVPWTFGQGTKVEIKRTVAAPSVFIFPPDIQMTQSPSSVSASVGDRVTITCRASQGISSWLAWYQQKPGKAPNLLIYEASSLQSGVPSRFGGSGSGTDFTLTISSLQPEDFATYYCQQANGFPWTFGQGTKVEIKRTVAAPSVFIFPPSDEQLKSGTASVVCLLNNFYPREAKVQWKVDNALQSGNSQESVTEQDSKDSTYSLSSTLTLSKADYEKHKVYACEVTHQGLSSPVTKSFNRGEC
notes: as for B8
B10: DVD664 (bispecific antibody, human IgG1, kappa)
heavy: not shown
light: DIQMTQSPSSLSASVGDRVTITCRASQVIRRSLAWYQQKPGKAPKLLIYAASNLASGVPSRFSGSGSGTDFTLTISSLQPEDFATYYCQQSNTSPLTFGQGTKVEIKRTVAAPDIQMTQSPSSLSASVGDRVTITCKASENVVSYVSWYQQKPGKAPKLLIYGASNRNTGVPSRFSGSGSGTDFTLTISSLQPEDFATYYCGQSYNYPYTFGQGTKLEIKRTVAAPSVFIFPPSDEQLKSGTASVVCLLNNFYPREAKVQWKVDNALQSGNSQESVTEQDSKDSTYSLSSTLTLSKADYEKHKVYACEVTHQGLSSPVTKSFNRGEC
notes: DVD-Ig; N-term VD AB071 (VEGF), C-term VD AB079 (HGF); HC linker short, LC linker short; vectors V1/V2
B11: DVD652 (bispecific antibody, human IgG1, kappa)
heavy: not shown
light: DIQMTQSPSSLSASVGDRVTITCRASQVIRRSLAWYQQKPGKAPKLLIYAASNLASGVPSRFSGSGSGTDFTLTISSLQPEDFATYYCQQSNTSPLTFGQGTKVEIKRTVAAPDIQMTQSPSSVSASVGDRVTITCRASQGISSWLAWYQQKPGKAPNLLIYEASSLQSGVPSRFGGSGSGTDFTLTISSLQPEDFATYYCQQANGFPWTFGQGTKVEIKRTVAAPSVFIFPPSDEQLKSGTASVVCLLNNFYPREAKVQWKVDNALQSGNSQESVTEQDSKDSTYSLSSTLTLSKADYEKHKVYACEVTHQGLSSPVTKSFNRGEC
notes: DVD-Ig; N-term VD AB071 (VEGF), C-term VD AB012 (HGF); HC linker long, LC linker short; vectors V1/V2
B12: DVD650 (bispecific antibody, human IgG1, kappa)
heavy: not shown
light: DIQMTQSPSSLSASVGDRVTITCRASQDVSTAVAWYQQKPGKAPKLLIYSASFLYSGVPSRFSGSGSGTDFTLTISSLQPEDFATYYCQQSYTTPPTFGQGTKVEIKRTVAAPDIQMTQSPSSVSASVGDRVTITCRASQGISSWLAWYQQKPGKAPNLLIYEASSLQSGVPSRFGGSGSGTDFTLTISSLQPEDFATYYCQQANGFPWTFGQGTKVEIKRTVAAPSVFIFPPSDEQLKSGTASVVCLLNNFYPREAKVQWKVDNALQSGNSQESVTEQDSKDSTYSLSSTLTLSKADYEKHKVYACEVTHQGLSSPVTKSFNRGEC
notes: as for B2
B13: DVD668 (bispecific antibody, human IgG1, kappa)
heavy: not shown
light: DIQMTQSPSSLSASVGDRVTITCRASQDVSTAVAWYQQKPGKAPKLLIYSASFLYSGVPSRFSGSGSGTDFTLTISSLQPEDFATYYCQQSYTTPPTFGQGTKVEIKRTVAAPSVFIFPPDIQMTQSPSSLSASVGDRVTITCKASENVVSYVSWYQQKPGKAPKLLIYGASNRNTGVPSRFSGSGSGTDFTLTISSLQPEDFATYYCGQSYNYPYTFGQGTKLEIKRTVAAPSVFIFPPSDEQLKSGTASVVCLLNNFYPREAKVQWKVDNALQSGNSQESVTEQDSKDSTYSLSSTLTLSKADYEKHKVYACEVTHQGLSSPVTKSFNRGEC
notes: as for B3
B14: DVD662 (bispecific antibody, human IgG1, kappa)
heavy: not shown
light: DIQMTQSPSSLSASVGDRVTITCRASQDVSTAVAWYQQKPGKAPKLLIYSASFLYSGVPSRFSGSGSGTDFTLTISSLQPEDFATYYCQQSYTTPPTFGQGTKVEIKRTVAAPDIQMTQSPSSLSASVGDRVTITCKASENVVSYVSWYQQKPGKAPKLLIYGASNRNTGVPSRFSGSGSGTDFTLTISSLQPEDFATYYCGQSYNYPYTFGQGTKLEIKRTVAAPSVFIFPPSDEQLKSGTASVVCLLNNFYPREAKVQWKVDNALQSGNSQESVTEQDSKDSTYSLSSTLTLSKADYEKHKVYACEVTHQGLSSPVTKSFNRGEC
notes: as for B1
B15: DVD674 (bispecific antibody, human IgG1, kappa)
heavy: not shown
light: B14 light
notes: as for B2

T1 sequence (P15692 other isoform, or with tags, fused parts or gaps limits assumed): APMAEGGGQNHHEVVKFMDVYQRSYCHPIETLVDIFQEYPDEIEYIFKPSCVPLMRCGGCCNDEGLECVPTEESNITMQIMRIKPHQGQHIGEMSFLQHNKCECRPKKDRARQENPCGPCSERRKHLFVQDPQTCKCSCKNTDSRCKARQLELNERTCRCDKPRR

The first assay has as its target T1, VEGF 1-165 aa (UniProt P15692 27-191).
T1 construct: Bought antigen coated on the ELISA plate
The experiment in a line: direct bind ELISA (N-term VD).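 Also: ELISA screen of antibodies for binding to plate-immobilized target antigen.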
In turn, B1 gave an EC50 of 1.51 nM.
Regarding B2, the half-maximal effective concentration (EC50) turned out to be 16.1 nM.
B3 yielded a half-maximal effective concentration (EC50) of 134 nM.
The molecule B4 came in with an EC50 of 48.3 nM.
Consider B5, for which the response was half-maximal at 30.7 nM (EC50).
In the case of B6, it took 28.7 nM to reach a half-maximal effect (EC50).
The molecule B7 had a 50% effective concentration (EC50) of 1.72 nM.
For B8, it took 7.87 nM to reach a half-maximal effect (EC50).
B9 displayed a concentration for a half-maximal effect (EC50) of 3.71 nM.
In turn, B10 gave a 50% effective concentration (EC50) of 40.9 nM.
In turn, B11 came in with an EC50 of 13.8 nM.
The same measure, in the same setting: next, B12: 2.67 nM; B13: 136 nM; B14: 70.2 nM.
Molecule B15 yielded an EC50 of 10.6 nM.

For another assay, the target named is T2, HGF-His tag (UniProt P14210 32-728).
T2 construct: Bought antigen coated on the ELISA plate; not shown: His tag
T2 sequence (P14210 32-728 limits assumed): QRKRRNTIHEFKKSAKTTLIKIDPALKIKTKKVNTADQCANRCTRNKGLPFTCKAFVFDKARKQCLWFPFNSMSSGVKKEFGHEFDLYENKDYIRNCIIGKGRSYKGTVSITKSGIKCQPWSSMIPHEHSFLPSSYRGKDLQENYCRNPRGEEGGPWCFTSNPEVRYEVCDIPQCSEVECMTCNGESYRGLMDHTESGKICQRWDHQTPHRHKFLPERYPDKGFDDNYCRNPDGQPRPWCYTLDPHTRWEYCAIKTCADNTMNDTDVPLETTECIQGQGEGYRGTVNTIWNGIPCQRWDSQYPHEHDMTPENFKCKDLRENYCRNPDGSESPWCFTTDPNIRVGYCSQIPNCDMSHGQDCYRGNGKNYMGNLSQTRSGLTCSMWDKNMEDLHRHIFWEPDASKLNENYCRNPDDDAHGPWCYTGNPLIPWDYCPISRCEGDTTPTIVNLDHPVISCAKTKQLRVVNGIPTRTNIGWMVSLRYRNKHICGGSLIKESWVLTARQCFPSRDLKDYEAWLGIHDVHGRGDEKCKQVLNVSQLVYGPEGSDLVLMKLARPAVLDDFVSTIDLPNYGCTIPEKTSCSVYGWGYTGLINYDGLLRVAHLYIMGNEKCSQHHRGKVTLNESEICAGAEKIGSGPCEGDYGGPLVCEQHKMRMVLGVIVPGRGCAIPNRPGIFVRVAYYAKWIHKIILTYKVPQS
Put plainly: direct bind ELISA (C-term VD).
In turn, B1 returned an EC50 of 449 nM.
Consider B2, for which the EC50 stood at 22.9 nM.
As to B3, the half-maximal effective concentration (EC50) came to 14.7 nM.
In turn, B4 came in with an EC50 of 3.1 nM.
On to B5, for which the EC50 was 0.49 nM.
B6 displayed an EC50 of 0.94 nM.
The molecule B7 came in with a concentration giving a half-maximal response (EC50) of 4.17 nM.
The molecule B8 returned a concentration giving a half-maximal response (EC50) of 1.27 nM.
The molecule B9 returned an EC50 of 0.91 nM.
With B10, the concentration giving a half-maximal response (EC50) was found to be 80.9 nM.
The molecule B11 registered a half-maximal effective concentration (EC50) of 4.71 nM.
Turning to B12, the EC50 came to 4.63 nM.
Regarding B13, the midpoint of the response, the EC50, lay at 20.2 nM.
As for B14, the midpoint of the response, the EC50, lay at 214 nM.
B15 came in with an EC50 of 17.6 nM.
